US20210063414A1, “METHODS FOR PREVENTING AND/OR TREATING BONE LOSS CONDITIONS BY MODULATING IRISIN” (Dana-Farber Cancer Institute, Inc., priority 2018, published 2021)

Target: T1, MLO-Y4 cell surface proteins (Mus musculus, UniProt B1AVY7)
T1 construct: endogenous in cells; host or cells: MLO-Y4
T1 sequence (B1AVY7 1-1312): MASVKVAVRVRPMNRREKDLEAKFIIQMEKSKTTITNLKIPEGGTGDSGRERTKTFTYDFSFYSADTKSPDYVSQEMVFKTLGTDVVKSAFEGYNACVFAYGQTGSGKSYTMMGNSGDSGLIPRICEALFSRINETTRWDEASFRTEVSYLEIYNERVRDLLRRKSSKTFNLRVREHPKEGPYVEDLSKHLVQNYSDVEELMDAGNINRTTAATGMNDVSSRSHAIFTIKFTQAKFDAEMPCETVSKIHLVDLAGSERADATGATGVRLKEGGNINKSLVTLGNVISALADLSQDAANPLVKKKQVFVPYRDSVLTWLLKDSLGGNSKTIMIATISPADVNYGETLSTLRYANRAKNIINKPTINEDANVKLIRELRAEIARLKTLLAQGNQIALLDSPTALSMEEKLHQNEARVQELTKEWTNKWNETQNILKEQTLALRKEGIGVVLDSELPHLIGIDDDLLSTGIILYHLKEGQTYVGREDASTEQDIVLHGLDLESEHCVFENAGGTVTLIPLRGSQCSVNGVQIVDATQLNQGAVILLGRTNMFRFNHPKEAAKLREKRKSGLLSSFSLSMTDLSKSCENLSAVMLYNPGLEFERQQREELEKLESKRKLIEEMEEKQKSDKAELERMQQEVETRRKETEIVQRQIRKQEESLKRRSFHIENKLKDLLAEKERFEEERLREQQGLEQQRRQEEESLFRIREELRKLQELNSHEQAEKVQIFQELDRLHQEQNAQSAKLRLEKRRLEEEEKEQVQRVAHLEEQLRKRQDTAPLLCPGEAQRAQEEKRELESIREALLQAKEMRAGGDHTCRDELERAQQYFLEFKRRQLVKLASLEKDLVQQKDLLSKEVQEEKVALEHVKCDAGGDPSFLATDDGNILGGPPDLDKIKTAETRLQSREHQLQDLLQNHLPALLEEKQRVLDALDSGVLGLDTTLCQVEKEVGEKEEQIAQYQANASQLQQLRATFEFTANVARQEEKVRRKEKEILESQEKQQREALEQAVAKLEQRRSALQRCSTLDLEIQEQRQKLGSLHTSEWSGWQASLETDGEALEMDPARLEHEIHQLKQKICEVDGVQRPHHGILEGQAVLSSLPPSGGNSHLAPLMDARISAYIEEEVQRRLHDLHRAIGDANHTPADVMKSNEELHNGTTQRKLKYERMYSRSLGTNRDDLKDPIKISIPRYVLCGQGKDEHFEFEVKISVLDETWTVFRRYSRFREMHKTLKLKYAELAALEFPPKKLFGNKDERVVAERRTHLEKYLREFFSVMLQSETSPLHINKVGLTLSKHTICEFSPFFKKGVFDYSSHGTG
Assay: Crosslinking/co-immunoprecipitation/mass spectrometry (TMT quantitative proteomics) to identify irisin receptors
Format: binding
Details: co-precipitated protein Kif16b (KI16B_MOUSE)
In short: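 Relative protein abundance came from 6-plex TMT MS3 quantitation on an Orbitrap Fusion Lumos, after in-gel trypsin digestion of Coomassie-stained SDS-PAGE lanes. Input was a Ni-NTA pulldown (250 mM imidazole elution) of lysates from murine MLO-Y4 cells. These cells were treated on ice with His-tagged irisin or adipsin (10 nM, 20 min) in serum-free medium, then crosslinked with 1.5 mM DTSSP for 30 min.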

B1: irisin: secreted cleaved form of FNDC5; recombinant human/mouse irisin with C-terminal his tag produced in HEK293 cells (protein)
chain: DSPSAPVNVTVRHLKANSAVVSWDVLEDEVVIGFAISQQKKDVRMLRFIQEVNTTTRSCALWDLEEDTEYIVHVQAISIQGQSPASEPVLFKTPREAEKMASKNKDEVTMKE
modifications: left off: small tags and cut ends
notes: secreted cleaved form of FNDC5; recombinant human/mouse irisin with C-terminal his tag produced in HEK293 cells
- TMT signal-to-noise ratio: 528.649
- irisin/adipsin TMT signal-to-noise ratio: 0.473
